This experiment concerns the target dynamin 2-K562E (baculovirus) (rat). Description: not stated; polymerization of recombinant (baculovirus) dynamin 2 with or without Bis-T-23; method in Supplementary Figures S2E, F.

Take dynamin 2-K562E (baculovirus) (enzyme): the fold increase of polymerization with Bis-T-23 against without Bis-T-23 is 3.5 times.

(Values after PMC9127447.)
